B1: SMTNL2 (parent)
chain: AFTMAENLANCERLIEVEDMMVMG
B2: COX4I1 (parent)
chain: VAHVKHLSASQKALKEKEKASWSS

Variants of: B1
Experiment: protein stability index of a GFP-peptide fusion (GPS, HEK-293T) (PSI 1-6); higher = more stable
Conditions: c terminus: a fixed tail appended
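Further: lentivirally expressed fusions sorted by FACS into six bins by GFP to DsRed ratio, PSI derived from sequencing read proportions per bin multiplied by bin number.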

Compared with AFTMAENLANCERLIEVEDMMVQG [M23Q], AFTMAENLANCERLIEVEDMMVRG [M23R] is lower in protein stability index: 3.21 for the first, 1.97 for the second.

Compared with AFTMAENLANCERLIEVEDMMVSG [M23S], AFTMAENLANCERLIEVEDMMVTG [M23T] is lower in protein stability index: 2.69 for the first, 1.8 for the second.

Going from AFTMAENLANCERLIEVEDMMVVG [M23V] to AFTMAENLANCERLIEVEDMMVWG [M23W], the protein stability index falls from 2.38 to 2.1.

Compared with AFTMAENLANCERLIEVEDMMVYG [M23Y], AFTMAENLANCERLIEVEDMMVMA [G24A] is higher in protein stability index: 1.88 for the first, 2.03 for the second.

First: AFTMAENLANCERLIEVEDMMVMC [G24C]
Second: AFTMAENLANCERLIEVEDMMVMD [G24D]
The protein stability index of the first is lower: 1.52 for the first, 2.33 for the second.

First: AFTMAENLANCERLIEVEDMMVME [G24E]
Second: AFTMAENLANCERLIEVEDMMVMF [G24F]
The protein stability index of the first is higher: 2.93 for the first, 2.22 for the second.

Going from AFTMAENLANCERLIEVEDMMVMH [G24H] to AFTMAENLANCERLIEVEDMMVMI [G24I], the protein stability index rises from 1.59 to 1.64.

First: AFTMAENLANCERLIEVEDMMVMK [G24K]
Second: AFTMAENLANCERLIEVEDMMVML [G24L]
The protein stability index of the first is higher: 2.31 for the first, 1.74 for the second.

Going from AFTMAENLANCERLIEVEDMMVMM [G24M] to AFTMAENLANCERLIEVEDMMVMN [G24N], the protein stability index rises from 1.96 to 2.45.

First: AFTMAENLANCERLIEVEDMMVMP [G24P]
Second: AFTMAENLANCERLIEVEDMMVMQ [G24Q]
The protein stability index of the first is lower: 2.07 for the first, 2.71 for the second.

Compared with AFTMAENLANCERLIEVEDMMVMR [G24R], AFTMAENLANCERLIEVEDMMVMS [G24S] is lower in protein stability index: 2.47 for the first, 2 for the second.

Going from AFTMAENLANCERLIEVEDMMVMT [G24T] to AFTMAENLANCERLIEVEDMMVMV [G24V], the protein stability index falls from 1.68 to 1.03.

With AFTMAENLANCERLIEVEDMMVMY [G24Y] the protein stability index was 1.27.

Variants of: B2
Experiment: as above
Conditions: c terminus: a fixed tail appended

First: AAHVKHLSASQKALKEKEKASWSS [V1A]
Second: CAHVKHLSASQKALKEKEKASWSS [V1C]
The protein stability index of the first is lower: 3.05 for the first, 3.06 for the second.

Compared with DAHVKHLSASQKALKEKEKASWSS [V1D], EAHVKHLSASQKALKEKEKASWSS [V1E] is lower in protein stability index: 3.98 for the first, 3.79 for the second.

Going from FAHVKHLSASQKALKEKEKASWSS [V1F] to GAHVKHLSASQKALKEKEKASWSS [V1G], the protein stability index rises from 2.34 to 4.06.

Compared with HAHVKHLSASQKALKEKEKASWSS [V1H], IAHVKHLSASQKALKEKEKASWSS [V1I] is higher in protein stability index: 3.25 for the first, 3.35 for the second.

Compared with KAHVKHLSASQKALKEKEKASWSS [V1K], LAHVKHLSASQKALKEKEKASWSS [V1L] is lower in protein stability index: 3.57 for the first, 2.95 for the second.

Going from MAHVKHLSASQKALKEKEKASWSS [V1M] to NAHVKHLSASQKALKEKEKASWSS [V1N], the protein stability index rises from 3.05 to 3.96.

First: PAHVKHLSASQKALKEKEKASWSS [V1P]
Second: QAHVKHLSASQKALKEKEKASWSS [V1Q]
The protein stability index of the first is lower: 3.53 for the first, 4.05 for the second.

First: RAHVKHLSASQKALKEKEKASWSS [V1R]
Second: SAHVKHLSASQKALKEKEKASWSS [V1S]
The protein stability index of the first is higher: 3.83 for the first, 3.73 for the second.

First: TAHVKHLSASQKALKEKEKASWSS [V1T]
Second: WAHVKHLSASQKALKEKEKASWSS [V1W]
The protein stability index of the first is higher: 4.03 for the first, 2.41 for the second.

Compared with YAHVKHLSASQKALKEKEKASWSS [V1Y], VCHVKHLSASQKALKEKEKASWSS [A2C] is higher in protein stability index: 2.7 for the first, 3.44 for the second.

Compared with VDHVKHLSASQKALKEKEKASWSS [A2D], VEHVKHLSASQKALKEKEKASWSS [A2E] is higher in protein stability index: 3.6 for the first, 3.77 for the second.

Going from VFHVKHLSASQKALKEKEKASWSS [A2F] to VGHVKHLSASQKALKEKEKASWSS [A2G], the protein stability index rises from 2.23 to 3.29.

Compared with VHHVKHLSASQKALKEKEKASWSS [A2H], VIHVKHLSASQKALKEKEKASWSS [A2I] is lower in protein stability index: 3.72 for the first, 2.29 for the second.

First: VKHVKHLSASQKALKEKEKASWSS [A2K]
Second: VLHVKHLSASQKALKEKEKASWSS [A2L]
The protein stability index of the first is lower: 3.02 for the first, 3.38 for the second.

Compared with VMHVKHLSASQKALKEKEKASWSS [A2M], VNHVKHLSASQKALKEKEKASWSS [A2N] is lower in protein stability index: 3.19 for the first, 2.81 for the second.

Going from VPHVKHLSASQKALKEKEKASWSS [A2P] to VQHVKHLSASQKALKEKEKASWSS [A2Q], the protein stability index falls from 3.77 to 3.46.

Going from VRHVKHLSASQKALKEKEKASWSS [A2R] to VSHVKHLSASQKALKEKEKASWSS [A2S], the protein stability index rises from 2.77 to 3.25.

Compared with VTHVKHLSASQKALKEKEKASWSS [A2T], VVHVKHLSASQKALKEKEKASWSS [A2V] is lower in protein stability index: 3.86 for the first, 2.72 for the second.

Going from VWHVKHLSASQKALKEKEKASWSS [A2W] to VYHVKHLSASQKALKEKEKASWSS [A2Y], the protein stability index falls from 2.92 to 2.3.

Going from VAAVKHLSASQKALKEKEKASWSS [H3A] to VACVKHLSASQKALKEKEKASWSS [H3C], the protein stability index falls from 3.44 to 2.75.

VADVKHLSASQKALKEKEKASWSS [H3D] and VAEVKHLSASQKALKEKEKASWSS [H3E] are the same in protein stability index: 4.11 for the first, 4.11 for the second.

Compared with VAFVKHLSASQKALKEKEKASWSS [H3F], VAGVKHLSASQKALKEKEKASWSS [H3G] is higher in protein stability index: 2.52 for the first, 3.22 for the second.

Going from VAIVKHLSASQKALKEKEKASWSS [H3I] to VAKVKHLSASQKALKEKEKASWSS [H3K], the protein stability index rises from 2.58 to 3.16.

Compared with VALVKHLSASQKALKEKEKASWSS [H3L], VAMVKHLSASQKALKEKEKASWSS [H3M] is higher in protein stability index: 2.6 for the first, 3.43 for the second.

Compared with VANVKHLSASQKALKEKEKASWSS [H3N], VAPVKHLSASQKALKEKEKASWSS [H3P] is lower in protein stability index: 4.5 for the first, 3.73 for the second.

Going from VAQVKHLSASQKALKEKEKASWSS [H3Q] to VARVKHLSASQKALKEKEKASWSS [H3R], the protein stability index falls from 3.28 to 3.19.

First: VASVKHLSASQKALKEKEKASWSS [H3S]
Second: VATVKHLSASQKALKEKEKASWSS [H3T]
The protein stability index of the first is lower: 3.27 for the first, 3.77 for the second.

Compared with VAVVKHLSASQKALKEKEKASWSS [H3V], VAWVKHLSASQKALKEKEKASWSS [H3W] is lower in protein stability index: 3.13 for the first, 2.1 for the second.

Compared with VAYVKHLSASQKALKEKEKASWSS [H3Y], VAHAKHLSASQKALKEKEKASWSS [V4A] is higher in protein stability index: 2.7 for the first, 4.1 for the second.

First: VAHCKHLSASQKALKEKEKASWSS [V4C]
Second: VAHDKHLSASQKALKEKEKASWSS [V4D]
The protein stability index of the first is lower: 3.34 for the first, 3.45 for the second.

First: VAHEKHLSASQKALKEKEKASWSS [V4E]
Second: VAHFKHLSASQKALKEKEKASWSS [V4F]
The protein stability index of the first is higher: 3.71 for the first, 2.83 for the second.

Going from VAHGKHLSASQKALKEKEKASWSS [V4G] to VAHHKHLSASQKALKEKEKASWSS [V4H], the protein stability index rises from 3.47 to 3.74.

Compared with VAHIKHLSASQKALKEKEKASWSS [V4I], VAHKKHLSASQKALKEKEKASWSS [V4K] is higher in protein stability index: 3.03 for the first, 3.48 for the second.

Compared with VAHLKHLSASQKALKEKEKASWSS [V4L], VAHMKHLSASQKALKEKEKASWSS [V4M] is higher in protein stability index: 2.88 for the first, 3.55 for the second.

Work on VAHNKHLSASQKALKEKEKASWSS [V4N] yielded a protein stability index of 3.64.

— the supplement of paper PMC10567573
